Source: the DeepSol protein solubility set

Assay: soluble on expression in E. coli; label from the status in PepcDB or PDB records

Sequence: MAHHHHHHMEAPTDNDSMQAGPVVVGHADGVLTMPSEDFASLHLQPIQDDTWIRNAEIVHMENFVETEDGKRIKREILKEYVEEKERQGTFHPDPILEGMIYQEKFMEAYRTNGRSVDADKAHSYRLKLLETHRRARAIENADT
- soluble on expression in E. coli: not soluble

Sequence: MRLLIVLSALLIPCLAQLSEDSSELEFGGQQAQRPSPDGPLFPRFLMHVPRFARKEFFDIVSNDQLSQDQQNEQLTIWAKAFNVTDEFNAWTKKIQEQKEAVSKNVEAVASNITTVYTQLEEILSNSNLTRRDQHDQIRKLATTFPREVRALFFIARNYRPEGRSPIFGQGIGMGKKPQSSMVPFIFQQQQPPMMMFGQQPFMPAGPMMMNRFQQTGSQQNFQSRRGGRGDGPGFVPGTQDNNQRGSGERGQRQNFGPSDNLTNGNQFSKKQFARGPSSMNSDLSENSQHSDSNSQFDFPRGPGGRGGRGQGPDFGPGGQGGRGQGPDFGPQDDFPGRRGSGGPGGRGGRGQGPDFEPQDDFPGRRGSGGPGRRGGRGQGPDFGPQDDFPGRRGSGGPGGRGGRGQGPDFGPGRQGGRGQGPDFGPQDDFSGRRGSGGPGGRGGRGQEPDFGPGGQGGRGQGPDFGPQDDFPGRRGSGGPEGRDGRGQGPDFGPGSQGGRGQDSDSGSQDAFPGRRGSGGPGGRGQGPDFGPQDDFPGRRGSGGPEGRDGRGQGPDFGPGSQGGRGQDSDSGSQDAFPGRRGPGGPGGLGGRGQGPDFGPGGQGDRGQGPDFGARSQGNRGQGPAFESRQPRQFDDADTSSAPSQKYFQRQMNSGMRFDQSSGFGMRKSQSTQQNYENFAEN
- soluble on expression in E. coli: not soluble

Sequence: AEAAAAQAPAAGPGQMSFTFASPTQVFFNSANVRQVDVPTQTGAFGILAAHVPTLQVLRPGLVVVHAEDGTTSKYFVSSGSVTVNADSSVQLLAEEAVTLDMLDLGAAKANLEKAQSELLGAADEATRAEIQIRIEANEALVKALE
- soluble on expression in E. coli: soluble

Sequence: MNQHLLGNPKLTVTHVNEVKAGINHIVVDSVQYGNQEMIMEKDGTVEMRDGEKLYINIFRPNKDGKFPVVMSADTYGKDNKPKITNMGALWPTLGTIPTSSFTPEESPDPGFWVPNDYVVVKVALRGSDKSKGVLSPWSKREAEDYYEVIEWAANQSWSNGNIGTNGVSYLAVTQWWVASLNPPHLKAMIPWEGLNDMYREVAFHGGIPDTGFYRFWTQGIFARWTDNPNIEDLIQAQQEHPLFDDFWKQRQVPLSQIKTPLLTCASWSTQGLHNRGSFEGFKQAASEEKWLYVHGRKEWESYYARENLERQKSFFDFYLKEENNDWKDTPHVIYEVRDQFYKGEFKSASAFPLPNAEYTPLYLNAENHTLNHAKISSAHVAQYDSEDKQQDVSFKYTFDKDTELVGNMNLKLWVSTKDSDDMDLFAGIKKLDRRGNEVNFPDFNHIENGQVATGWLRVSHRELDQEKSSIAQPWHKHETELKLSQDEIVPVEIELLPSGTLFKQGETLEVVVKGSEIVIGNSTPGMKTRYEHEETVNKGMHMIYTGGKYDSQLIIPIVN
- soluble on expression in E. coli: soluble

Sequence: MGSDKIHHHHHHMKLKNDELTVEFKPEGATISSIRDRDGVEYLWQGNPEYWGGQAPVLFPICGSLRNDGATFQVGEKTISGSMPRHGIVRKRTFDLVKHTENEIQFRILSDDEMLKQYPFPFELQLTYRLDGKRLETEYAIRYLGELDAMPFFIGGHPGFNCPLLEDEAFDDYYLEFELEEDCTIPESFPETGLLDFSKRQPMLSKTRILDLNYELFQHDALTFDNLKSRKVALKTKNHQKGLKVSFEDFPFLVVWTTTNKGPFIALEPWSGLSTSLTETDNFIDKTHVTYVEKGEVSRKAFTIEIC
- soluble on expression in E. coli: not soluble

Sequence: SAPGWLKEMRGEHIPETEEYGISSFSFLARRPFHPEKFYHFLHDTEKFGKLIRSKGYFWLATRPQFSGQWNQAGGIAHYGFAAMFWKSVPKKDWPIDEESLNAIEKQWVEPFGDMRQELVFIGQQLDQGAMTNALNECLL
- soluble on expression in E. coli: not soluble

Sequence: MSSDVRFTDFKSDKQPTWCPGCGDFGTMNGMMKALAETGNDPDNTFIVAGIGCSGKIGTYMHSYALHGVHGRALPVGIGVKMANPDLEVMVSGGDGDGYSIGAGHFIHAVRRNVDMSYVVMDNRIYGLTKGQASPTSREDFETSTSPDGPNQPPVNPKALALASGATFIAQSFSSNAQRHAEIVQKAVEHDGFGFVNVYSPCVTFNDVDTYDYFRDAIVDLDETDHDPADRDQAKDKILESEKEYMGVLYQDEDSVPFEEREGVEGSMAEIPDGAPEGAMDLVREFY
- soluble on expression in E. coli: not soluble
